# Results as given in paper PMC2755476, “The Sam domain of the lipid phosphatase Ship2 adopts a common model to interact with Arap3-Sam and EphA2-Sam” (BMC Structural Biology, 2009).
# T1: Sam domain of Arap3 (Arap3-Sam), His-tag cut away with thrombin (human, UniProt Q8WWN8 1-80)
# T1 construct: Arap3, human, residues 1 to 80, encompassing the Sam domain (residues 4 to 68); same construct as m1 after thrombin cleavage of the His-tag; A few vector residues probably remain at the N-terminus after thrombin cleavage; source: E. coli BL21-Gold (DE3), pET15b, purified (nickel column); His-tag cut with thrombin, thrombin removed on a benzamidine column; not shown: His6, N-terminal, cleaved
# T1 sequence (looked up): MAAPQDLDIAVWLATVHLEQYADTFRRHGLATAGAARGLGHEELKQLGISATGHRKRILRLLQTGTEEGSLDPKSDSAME
# What was measured:
# Arap3 Sam (Homo sapiens) = Arap3 Sam (Homo sapiens) (UniProt Q8WWN8); experiment: ITC; conditions: cited from earlier work
# EphA2 Sam (Homo sapiens) = EphA2 Sam (Homo sapiens) (UniProt P29317); experiment: ITC; conditions: cited from earlier work
# [1] = biological target: T1, Sam domain of Arap3 (Arap3-Sam), …; experiment: ITC; 25 C, VP-ITC; Shiptide (1 mM) titrated into Arap3-Sam (75 uM, His-tag cut away); 1 x PBS pH 7.7; one binding site model; repeated twice; conditions: both partners purified
# Sequence of Ship2 Sam (O15357 1193-1258): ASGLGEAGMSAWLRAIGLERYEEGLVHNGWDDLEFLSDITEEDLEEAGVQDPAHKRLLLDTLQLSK
# Sequence of EphA2 Sam (Homo sapiens) (P29317 901-971): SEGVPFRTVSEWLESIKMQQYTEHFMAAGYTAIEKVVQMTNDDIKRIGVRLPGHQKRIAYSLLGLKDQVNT
Kd [1],dH [1],stoichiometry N [1],Molecule,Kd (Arap3 Sam (Homo sapiens)),Kd (EphA2 Sam (Homo sapiens))
–,–,–,Ship2 Sam (from UniProt O15357),100 nM,750 nM
40000 ± 7000 nM,-2.6 ± 0.922 kcal/mol,0.8 ± 0.1,"Ac-EGLVHNGWDDLEFLSDITEEDL-NH2 (region of Ship2-Sam, amino acids from 43 to 64. numbers count on: the Ship2-Sam construct, as in PDB 2K4P; source: synthetic peptide; purchased from the Protein/DNA Facility of the Medical College of Wisconsin) [Ship2-peptide Ac-EGLVHNGWDDLEFLSDITEEDL-NH2 (Shiptide)]",–,–
